{"source": "patent US20240166747A1", "about": "(GlaxoSmithKline, published 2024)", "binders": {"B1": {"name": "42Y073-86F08-3 (antibody, V domains shown)", "VH": "QVQLVQSGAEVKKPGSSVKVSCKASGGTFVNYAISWVRQAPGQGLEWMGGIIPALGTANYAQKFQGRVTITADESTSTAYMELSSLRSEDTAVYYCARGAGYYGDKDPMDVWGQGTTVTVSS", "VL": "DIQLTQSPSSLSASVGDRVTITCRASQSISSYLNWYQQKPGKAPKLLIYAASSLQSGVPSRFSGSGSGTDFTLTISSLQPEDFATYYCQQVLHTITFGGGTKVEIK"}, "B2": {"name": "42Y073-86F08-66 (antibody, human IgG1, kappa)", "heavy": "not shown", "light": "DIQLTQSPSSLSASVGDRVTITCRASQSISSYLNWYQQKPGKAPKLLIYAASSLQSGVPSRFSGSGSGTDFTLTISSLQPEDFATYYCQQVLHTITFGGGTKVEIKRTVAAPSVFIFPPSDEQLKSGTASVVCLLNNFYPREAKVQWKVDNALQSGNSQESVTEQDSKDSTYSLSSTLTLSKADYEKHKVYACEVTHQGLSSPVTKSFNRGEC", "notes": "expressed in CHO or HEK cells; also called GSK 6097608; GSK6097608"}}, "key": {"[1]": {"molecular_target": "T1, cynomolgus monkey CD96v2 expressed on cells (cynomolgus monkey, UniProt A0A2K5TWV6 22-569)", "T1 construct": "also called CHO-cyCD96; Cyno CD96v2", "T1 sequence": "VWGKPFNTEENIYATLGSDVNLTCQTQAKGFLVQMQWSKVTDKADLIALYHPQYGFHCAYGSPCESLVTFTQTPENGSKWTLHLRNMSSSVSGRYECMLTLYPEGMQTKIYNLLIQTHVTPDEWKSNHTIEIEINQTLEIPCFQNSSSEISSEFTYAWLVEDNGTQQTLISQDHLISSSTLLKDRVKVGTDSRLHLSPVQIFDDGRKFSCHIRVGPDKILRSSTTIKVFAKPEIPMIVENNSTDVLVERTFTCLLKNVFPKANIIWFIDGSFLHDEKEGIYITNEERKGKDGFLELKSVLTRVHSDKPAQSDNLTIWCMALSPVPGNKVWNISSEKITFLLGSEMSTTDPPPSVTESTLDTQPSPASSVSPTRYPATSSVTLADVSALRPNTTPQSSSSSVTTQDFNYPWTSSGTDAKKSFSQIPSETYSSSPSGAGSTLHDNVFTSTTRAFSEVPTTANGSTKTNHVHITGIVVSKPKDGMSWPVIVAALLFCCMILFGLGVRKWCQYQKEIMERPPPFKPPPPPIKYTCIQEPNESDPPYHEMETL", "experiment": "flow cytometry, CHO cells expressing cynomolgus CD96v2", "procedure": "CHO cells expressing human CD96v2 or cynomolgus monkey CD96v2 were prepared in PBS. The cynomolgus monkey CD96v2 cells were stained with 1 μM violet proliferation dye (VPD450). […] The stained CHO-cyCD96 and unstained CHO-huCD96 cells were combined and added to wells of a 384-well assay plate together with dilutions of test anti-CD96 binding proteins for 1h at 4° C. Cells were further incubated with anti-IgG APC conjugate antibody and the amount of surface bound antibody on each of the CHO-cyCD96 and CHO-huCD96 cells was determined by flow cytometry. Median fluorescence intensity (MFI) values were fitted using a 4 parameter logistic model to calculate the EC50 of binding."}, "[2]": {"molecular_target": "T1, cynomolgus monkey CD96v2 expressed on …", "experiment": "flow cytometry on transiently transfected HEK cells (normalised MFI), upper left panel"}, "[3]": {"molecular_target": "T2, human CD96v1 expressed on HEK cells (human, UniProt P40200 22-585)", "T2 construct": "whole, on cells", "T2 sequence (looked up)": "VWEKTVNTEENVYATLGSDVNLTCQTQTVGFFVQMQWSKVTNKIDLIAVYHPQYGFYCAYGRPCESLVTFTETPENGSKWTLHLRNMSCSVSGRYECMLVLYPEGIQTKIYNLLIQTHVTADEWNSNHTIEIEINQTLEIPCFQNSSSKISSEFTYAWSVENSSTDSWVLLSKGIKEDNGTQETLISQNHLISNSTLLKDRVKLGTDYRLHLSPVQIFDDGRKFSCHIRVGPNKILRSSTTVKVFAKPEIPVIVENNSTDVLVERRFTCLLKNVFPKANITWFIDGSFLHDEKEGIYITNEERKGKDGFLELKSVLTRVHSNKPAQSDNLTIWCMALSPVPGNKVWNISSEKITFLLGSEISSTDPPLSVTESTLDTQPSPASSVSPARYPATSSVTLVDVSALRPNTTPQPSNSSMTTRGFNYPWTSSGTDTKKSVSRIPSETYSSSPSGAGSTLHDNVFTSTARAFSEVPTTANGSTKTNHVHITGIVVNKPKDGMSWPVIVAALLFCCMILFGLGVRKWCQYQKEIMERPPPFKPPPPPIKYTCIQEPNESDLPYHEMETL", "experiment": "flow cytometry on transiently transfected HEK cells (normalised MFI), upper left panel"}, "[4]": {"molecular_target": "T3, native cynomolgus monkey CD96 on primary cynomolgus monkey T cells (cynomolgus monkey, UniProt A0A2K5TWV6 22-569)", "T3 construct": "whole, on cells", "T3 sequence": "T1 sequence", "experiment": "flow cytometry on activated primary cynomolgus monkey T cells (PE median MFI), pooled donor"}}, "data": [{"binder": "B1", "values": [{"measurement": "EC50", "setting": "[1]", "value": 0.08, "unit": "nM"}]}, {"binder": "B2", "values": [{"measurement": "EC50 (read off the curve)", "setting": "[2]", "value": "~8", "unit": "nM"}, {"measurement": "EC50 (read off the curve)", "setting": "[3]", "value": "~4", "unit": "nM"}, {"measurement": "EC50 (read off the curve)", "setting": "[4]", "value": "~0.06", "unit": "nM"}]}]}
